# Substitutions are numbered along the chain they refer to.
# B1: SEQ ID NO: 46: mutant of residues 67-377 of the pig 6OST enzyme, SEQ ID NO: 20 mutations (protein)
# chain: MKYYFPVRELERSLHFDMKGDDVIVFLHIGHTGGTTFGRHLVQNVRLEVPCDCRPGQKKCTCYRPNRRETWLFSRFSTGWSCGTRADWTELTNCVPGVLDRRDPAALRTPRKFYYITLLRDPVSRYLSHWRHTQRGGANKTGLHMCDGRTPTPEELPPCYEGTDWSGCTLQEFMDCPYNLGNNRQVRMLADLSLVGCYNLSFIPEGKRSQLLLESAKKNLRGMAFFGLTEFQRKTQYLFERTFNLKFIRPFMQYNSTRAGGVEVGEDTIRRIEELNDLDMQLYDYARDLFQQRYQYKRQLERRQQRLRSREE
# modifications: Amino acid sequence encoding for engineered arylsulfate-dependent 6-O-sulfotransferase variant 7
# B2: SEQ ID NO: 47: mutant of residues 67-377 of the pig 6OST enzyme, SEQ ID NO: 22 mutations (protein)
# chain: B1 chain with T84S, R85H, H129G, T133H, G142S
# modifications: Amino acid sequence encoding for engineered arylsulfate-dependent 6-O-sulfotransferase variant 8
# B3: SEQ ID NO: 18: engineered aryl sulfate-dependent 6OST enzyme, mutant of isoform 1 of the mouse 6OST enzyme (protein)
# chain: MKYYFPVRELERSLRFDMKGDDVIVFLHIGHTGGTTFGRHLVQNVRLEVPCDCRPGQKKCTCYRPNRRETWLFSRFSTGWSCGTNADWTELTNCVPGVLDRRDPAGLRSPRKFYYITLLRDPVSRYLGGWRHHQRGGTNKTSLHMCDGRTPTPEELPPCYEGTDWSGCTLQEFMDCPYNLANNRQVRMLADLSLVGCYNLSFIPESKRAQLLLESAKKNLRGMAFFGLTEFQRKTQYLFERTFNLKFIRPFMQYNSTRAGGVEVDEDTIRHIEELNDLDMQLYDYAKDLFQQRYQYKRQLERREQRLRNREE
# modifications: Amino acid sequence encoding for engineered arylsulfate-dependent 6-O-sulfotransferase variant 1
# notes: engineered aryl sulfate-dependent 6OST enzyme, mutant of isoform 1 of the mouse 6OST enzyme
# B4: SEQ ID NO: 45: mutant of residues 67-377 of the pig 6OST enzyme, SEQ ID NO: 18 mutations (protein)
# chain: B1 chain with R85N, S128G, H129G, T133H, A138T, G142S, G181A
# modifications: Amino acid sequence encoding for engineered arylsulfate-dependent 6-O-sulfotransferase variant 6
# B5: SEQ ID NO: 20: engineered aryl sulfate-dependent 6OST enzyme, mutant of isoform 1 of the mouse 6OST enzyme (protein)
# chain: B3 chain with N85R, G128S, G129H, H133T, T138A, S142G, A181G
# modifications: Amino acid sequence encoding for engineered arylsulfate-dependent 6-O-sulfotransferase variant 2
# notes: as for B3
# B6: SEQ ID NO: 22: engineered aryl sulfate-dependent 6OST enzyme, mutant of isoform 1 of the mouse 6OST enzyme (protein)
# chain: B3 chain with T84S, N85H, G128S, T138A, A181G
# modifications: Amino acid sequence encoding for engineered arylsulfate-dependent 6-O-sulfotransferase variant 3
# notes: as for B3
# B7: SEQ ID NO: 48: mutant of the full-length pig 6OST enzyme, SEQ ID NO: 18 mutations (protein)
# chain: MRRRRAGSRTMVERASKFVLVVAGSACFMLILYQYAGPGLSLGAPGGRAPPDDLDLFPTPDPHYEKKYYFPVRELERSLHFDMKGDDVIVFLHIGHTGGTTFGRHLVQNVRLEVPCDCRPGQKKCTCYRPNRRETWLFSRFSTGWSCGTNADWTELTNCVPGVLDRRDPAALRTPRKFYYITLLRDPVSRYLGGWRHHQRGGTNKTSLHMCDGRTPTPEELPPCYEGTDWSGCTLQEFMDCPYNLANNRQVRMLADLSLVGCYNLSFIPEGKRSQLLLESAKKNLRGMAFFGLTEFQRKTQYLFERTFNLKFIRPFMQYNSTRAGGVEVGEDTIRRIEELNDLDMQLYDYARDLFQQRYQYKRQLERRQQRLRSREERLLHRAKEAPPRGDTEEPGRVPTEDYMSHIIEKW
# modifications: Amino acid sequence encoding for engineered arylsulfate-dependent 6-O-sulfotransferase variant 9
# B8: SEQ ID NO: 49: mutant of the full-length pig 6OST enzyme, SEQ ID NO: 20 mutations (protein)
# chain: B7 chain with N150R, G193S, G194H, H198T, T203A, S207G, A246G
# modifications: Amino acid sequence encoding for engineered arylsulfate-dependent 6-O-sulfotransferase variant 10
# B9: SEQ ID NO: 50: mutant of the full-length pig 6OST enzyme, SEQ ID NO: 22 mutations (protein)
# chain: B7 chain with T149S, N150H, G193S, T203A, A246G
# modifications: Amino acid sequence encoding for engineered arylsulfate-dependent 6-O-sulfotransferase variant 11
# B10: SEQ ID NO: 59: full-length mutant of isoform 3 of the mouse 6OST enzyme, SEQ ID NO: 18 mutations (protein)
# chain: MDERFNKWLLTPVLTLLFVVIMYQYVSPSCTSSCTNFGEQLRSGEARPPAVPSPARRAQAPLDEWERRPQLPPPPRGPPEGSRGVAAPEDEDEDPGDPEEEEEEEEEEPDPEAPENGSLPRFVPRFNFTLKDLTRFVDFNIKGRDVIVFLHIGHTGGTTFGRHLVKNIRLEQPCSCKAGQKKCTCHRPGKKETWLFSRFSTGWSCGTNADWTELTNCVPAIMEKKDCPRNHSHTRNFYYITMLRDPVSRYLGGWKHHQRGGTNKTSLHMCDGRSPTPDELPTCYPGDDWSGVSLREFMDCSYNLANNRQVRMLADLSLVGCYNLTFMNESERNTILLQSAKNNLKNMAFFGLTEFQRKTQFLFERTFNLKFISPFTQVNITRASNVDINDGARQHIEELNFLDMQLYEYAKDLFQQRYHHTKQLEHQRDRQKRREERRLQREHRAHRWPKEDRAMEGTVTEDYNSQVVRW
# modifications: Amino acid sequence encoding for engineered arylsulfate-dependent 6-O-sulfotransferase variant 12
# B11: SEQ ID NO: 61: full-length mutant of isoform 3 of the mouse 6OST enzyme, SEQ ID NO: 22 mutations (protein)
# chain: B10 chain with T207S, N208H, G252S, T262A, A305G, V378F
# modifications: Amino acid sequence encoding for engineered arylsulfate-dependent 6-O-sulfotransferase variant 13
# B12: SEQ ID NO: 60: full-length mutant of isoform 3 of the mouse 6OST enzyme, SEQ ID NO: 20 mutations (protein)
# chain: B10 chain with N208R, G252S, G253H, H257T, T262A, S266G, A305G, V378F
# modifications: Amino acid sequence encoding for engineered arylsulfate-dependent 6-O-sulfotransferase variant 13
# Assay: 6OST activity: 6-O sulfated products detected by LCMS after lyase digestion
# Assay type: biochemical
# Settings: for 6OST activity: N,2,6-HS products by MS: procedures of Example 4, expected; for 6OST sulfotransferase activity by sulfo group donor: NCS or PNS as sulfo donor, D0S6 and D2S6 disaccharides
# Method: A study was conducted in accordance with embodiments of the present disclosure to confirm 6OST activity of enzymes comprising the amino acid sequence of SEQ ID NO: 18, SEQ ID NO: 20, or SEQ ID NO: 22 by detecting the presence of 6-O sulfated polysaccharide products as a result of their sulfotransfer reaction, using a similar LCMS procedure as in Example 3, except that the sulfo acceptor polysaccharide was prepared by chemically 6-O desulfating commercially available heparin (CAS code: 9041-08-1, available from Millipore Sigma), according to the procedure provided by Kariya, Y., et al., (2000) J. Biol. Chem. 275 (34):25949-25958).
relative 6OST activity among engineered enzymes (comparing peak area percentages of D0S6 and D2S6 disaccharides),Molecule,"6OST activity: N,2,6-HS products by MS",6OST sulfotransferase activity by sulfo group donor
,B1,"confirm the presence of N,2,6-HS products",
,B2,"confirm the presence of N,2,6-HS products",
,B3,,active when NCS was the sulfo group donor
,B4,"confirm the presence of N,2,6-HS products",
,B5,,active when NCS was the sulfo group donor
the most active,B6,,active when PNS was the sulfo group donor
,B7,"confirm the presence of N,2,6-HS products",
,B8,"confirm the presence of N,2,6-HS products",
,B9,"confirm the presence of N,2,6-HS products",
,B10,"confirm the presence of N,2,6-HS products",
,B11,"confirm the presence of N,2,6-HS products",
,B12,"confirm the presence of N,2,6-HS products",

# Reference: patent US11629364B2, “Methods for synthesizing anticoagulant polysaccharides” (OPTIMVIA, LLC, priority 2019, dated 2023)
